According to paper PMC6200739:

Tests used:
[1] = target: Flag-tagged LDHA containing a nuclear localization signal peptide; assay: cross-linking
[2] = target: Flag-tagged LDHA containing a nuclear localization signal peptide; assay: SEC

For “Flag-tagged LDHA containing a nuclear localization signal peptide (enzyme)”, the stoichiometry N [1] was 2 and the stoichiometry N [2] was 2.
